Test results reported in patent US20150203577A1 (Chugai, published 2015).

T1: mouse FcγRII (mouse, UniProt P08101 30-210)
T1 construct: Extracellular domain with C-terminal His tag; also called mFcγRII; mFcgRII
T1 sequence: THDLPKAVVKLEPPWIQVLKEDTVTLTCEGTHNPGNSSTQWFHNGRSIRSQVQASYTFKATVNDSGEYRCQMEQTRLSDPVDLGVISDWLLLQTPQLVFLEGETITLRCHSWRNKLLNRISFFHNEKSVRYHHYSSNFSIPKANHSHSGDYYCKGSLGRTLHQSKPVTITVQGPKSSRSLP

T2: mouse FcγRIII (mouse, UniProt P08508 31-215)
T2 construct: Extracellular domain with C-terminal His tag; also called mFcγRIII; mFcgRIII
T2 chain: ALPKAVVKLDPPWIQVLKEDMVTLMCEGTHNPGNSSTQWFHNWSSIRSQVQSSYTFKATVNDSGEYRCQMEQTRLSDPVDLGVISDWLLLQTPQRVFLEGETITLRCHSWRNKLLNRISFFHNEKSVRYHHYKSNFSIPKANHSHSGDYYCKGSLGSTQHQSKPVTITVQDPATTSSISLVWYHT


How the values were obtained:
mouse FcγRII [1] = target: T1, mouse FcγRII; assay: SPR (Biacore T200); KD of H237-MB630/MRAL-k0 / KD of variant
Excerpt: (§1) The antibody H chain variable region used was the variable region H237 (SEQ ID NO: 1) of the H chain VH3-IgG1 of the anti-IL-6 receptor antibody Fv4-IgG1 described in WO2009/125825. The antibody L chain commonly used was the L chain MRAL-k0 (SEQ ID NO: 2) of the anti-IL-6 receptor antibody tocilizumab. […] These variants were expressed and purified by the method of Reference Example 1 and evaluated for their binding to mFcγRII and mFcγRIII by the method of Reference Example 2 using Biacore T200.
(§2) Each altered antibody was analyzed for its interaction with each Fcγ receptor prepared above using Biacore T100 (GE Healthcare Japan Corp.), Biacore T200 (GE Healthcare Japan Corp.), Biacore A100, or Biacore 4000. The running buffer used was HBS-EP+ (GE Healthcare Japan Corp.). The assay temperature was set to 25° C. The sensor chips used were chips prepared by immobilizing Protein L (ACTIGEN or BioVision) onto Series S Sensor Chip CM5 (GE Healthcare Japan Corp.) or Series S Sensor Chip CM4 (GE Healthcare Japan Corp.) by the amine coupling method.
(§3) In order to calculate the KD value of each altered antibody for FcγR, kinetic analysis was conducted according to the following method: first, the antibody of interest was captured onto any of these chips and allowed to interact with mFcγR diluted with a running buffer. For the obtained sensorgram, the assay results were globally fit into the 1:1 Langmuir binding model using Biacore Evaluation Software to calculate an association rate constant ka (L/mol/s) and a dissociation rate constant kd (1/s). From these values, the dissociation constant KD (mol/L) was calculated.

mouse FcγRIII [2] = target: T2, mouse FcγRIII; assay: as above
Excerpt: as §1, §2, §3

mouse FcγRII [3] = target: T1, mouse FcγRII; assay: SPR (Biacore T200); KD of H237-mIgG1/MRAL-k0 / KD of variant
Excerpt: as §1, §2

mouse FcγRIII [4] = target: T2, mouse FcγRIII; assay: as above
Excerpt: as §1, §2

Row | Binder | Relative mFcγRII-binding activity (MB630 = 1) (mouse FcγRII [1]) | Relative mFcγRIII-binding activity (MB630 = 1) (mouse FcγRIII [2]) | relative mFcγRII-binding activity (mIgG1 = 1) (mouse FcγRII [3]) | relative mFcγRIII-binding activity (mIgG1 = 1) (mouse FcγRIII [4])
1 | MB810 (antibody, mouse IgG1, kappa, CH name; VH H237 + CH, L chain MRAL-k0; copies: 2 + 2) heavy: QVQLQESGPGLVKPSETLSLTCAVSGHSISHDHAWSWVRQPPGEGLEWIGFISYSGITNYNPSLQGRVTISRDNSKNTLYLQMNSLRAEDTAVYYCARSLARTTAMDYWGEGTLVTVSSAKTTPPSVYPLAPGSAAQTNSMVTLGCLVKGYFPEPVTVTWNSGSLSSGVHTFPAVLQSDLYTLSSSVTVPSSTWPSETVTCNVAHPASSTKVDKKIVPRDCGCKPCICEPNEVELVFIFPPKPKDVLTITLTPKVTCVVVDISKDDPEVQFSWFVDDVEVHTAQTQPREELFNSTFRSVSELPIMHQDWLNGKEFKCRVNSAAFPAYIEKTISKTKGRPKAPQVYTIPPPKEQMAKDKVSLTCMITDFFPEDITVEWQWNGQPAENYKNTQPIMDTDGSYFVYSKLNVQKSNWEAGNTFTCSVLHEGLHNHHTEKSLSHSPGK light: not shown | 1.58 fold | 2.24 fold | 20.8 fold | 0.52 fold
2 | MB814 (antibody, mouse IgG1, kappa, CH name; VH H237 + CH, L chain MRAL-k0; copies: 2 + 2) heavy: QVQLQESGPGLVKPSETLSLTCAVSGHSISHDHAWSWVRQPPGEGLEWIGFISYSGITNYNPSLQGRVTISRDNSKNTLYLQMNSLRAEDTAVYYCARSLARTTAMDYWGEGTLVTVSSAKTTPPSVYPLAPGSAAQTNSMVTLGCLVKGYFPEPVTVTWNSGSLSSGVHTFPAVLQSDLYTLSSSVTVPSSTWPSETVTCNVAHPASSTKVDKKIVPRDCGCKPCICEPNEVELVFIFPPKPKDVLTITLTPKVTCVVVDISKDDPEVQFSWFVDDVEVHTAQTQPREEQFNSTFRSVSELPIMHQDWLNGKEFKCRVDSAAFPAYIEKTISKTKGRPKAPQVYTIPPPKEQMAKDKVSLTCMITDFFPEDITVEWQWNGQPAENYKNTQPIMDTDGSYFVYSKLNVQKSNWEAGNTFTCSVLHEGLHNHHTEKSLSHSPGK light: not shown | 1.37 fold | 1.48 fold | 18 fold | 0.34 fold
3 | MB812 (antibody, mouse IgG1, kappa, CH name; VH H237 + CH, L chain MRAL-k0; copies: 2 + 2) heavy: QVQLQESGPGLVKPSETLSLTCAVSGHSISHDHAWSWVRQPPGEGLEWIGFISYSGITNYNPSLQGRVTISRDNSKNTLYLQMNSLRAEDTAVYYCARSLARTTAMDYWGEGTLVTVSSAKTTPPSVYPLAPGSAAQTNSMVTLGCLVKGYFPEPVTVTWNSGSLSSGVHTFPAVLQSDLYTLSSSVTVPSSTWPSETVTCNVAHPASSTKVDKKIVPRDCGCKPCICEPNEVELVFIFPPKPKDVLTITLTPKVTCVVVDISKDDPEVQFSWFVDDVEVHTAQTQPREEQFNSTFRSVSELPIMHQDWLNGKEFKCRVDSAGFPAPIEKTISKTKGRPKAPQVYTIPPPKEQMAKDKVSLTCMITDFFPEDITVEWQWNGQPAENYKNTQPIMDTDGSYFVYSKLNVQKSNWEAGNTFTCSVLHEGLHNHHTEKSLSHSPGK light: not shown | 2.54 fold | 2.93 fold | 33.4 fold | 0.68 fold
4 | MB811 (antibody, mouse IgG1, kappa, CH name; VH H237 + CH, L chain MRAL-k0; copies: 2 + 2) heavy: QVQLQESGPGLVKPSETLSLTCAVSGHSISHDHAWSWVRQPPGEGLEWIGFISYSGITNYNPSLQGRVTISRDNSKNTLYLQMNSLRAEDTAVYYCARSLARTTAMDYWGEGTLVTVSSAKTTPPSVYPLAPGSAAQTNSMVTLGCLVKGYFPEPVTVTWNSGSLSSGVHTFPAVLQSDLYTLSSSVTVPSSTWPSETVTCNVAHPASSTKVDKKIVPRDCGCKPCICEPNEVELVFIFPPKPKDVLTITLTPKVTCVVVDISKDDPEVQFSWFVDDVEVHTAQTQPREELFNSTFRSVSELPIMHQDWLNGKEFKCRVNSAAFPAPIYKTISKTKGRPKAPQVYTIPPPKEQMAKDKVSLTCMITDFFPEDITVEWQWNGQPAENYKNTQPIMDTDGSYFVYSKLNVQKSNWEAGNTFTCSVLHEGLHNHHTEKSLSHSPGK light: not shown | 1.69 fold | 1.87 fold | 22.2 fold | 0.43 fold

The remaining lines, values ahead:

Row | Relative mFcγRII-binding activity (MB630 = 1) (mouse FcγRII [1]) | Relative mFcγRIII-binding activity (MB630 = 1) (mouse FcγRIII [2]) | relative mFcγRII-binding activity (mIgG1 = 1) (mouse FcγRII [3]) | relative mFcγRIII-binding activity (mIgG1 = 1) (mouse FcγRIII [4]) | Binder
5 | 1.44 fold | 1.92 fold | 19 fold | 0.44 fold | MB809 (antibody, mouse IgG1, kappa, CH name; VH H237 + CH, L chain MRAL-k0; copies: 2 + 2) heavy: QVQLQESGPGLVKPSETLSLTCAVSGHSISHDHAWSWVRQPPGEGLEWIGFISYSGITNYNPSLQGRVTISRDNSKNTLYLQMNSLRAEDTAVYYCARSLARTTAMDYWGEGTLVTVSSAKTTPPSVYPLAPGSAAQTNSMVTLGCLVKGYFPEPVTVTWNSGSLSSGVHTFPAVLQSDLYTLSSSVTVPSSTWPSETVTCNVAHPASSTKVDKKIVPRDCGCKPCICEPNEVELVFIFPPKPKDVLTITLTPKVTCVVVDISKDDPEVQFSWFVDDVEVHTAQTQPREELFNSTFRSVSELPIMHQDWLNGKEFKCRVNSAAFPAFIEKTISKTKGRPKAPQVYTIPPPKEQMAKDKVSLTCMITDFFPEDITVEWQWNGQPAENYKNTQPIMDTDGSYFVYSKLNVQKSNWEAGNTFTCSVLHEGLHNHHTEKSLSHSPGK light: not shown
6 | 1.34 fold | 1.3 fold | 17.6 fold | 0.3 fold | MB815 (antibody, mouse IgG1, kappa, CH name; VH H237 + CH, L chain MRAL-k0; copies: 2 + 2) heavy: QVQLQESGPGLVKPSETLSLTCAVSGHSISHDHAWSWVRQPPGEGLEWIGFISYSGITNYNPSLQGRVTISRDNSKNTLYLQMNSLRAEDTAVYYCARSLARTTAMDYWGEGTLVTVSSAKTTPPSVYPLAPGSAAQTNSMVTLGCLVKGYFPEPVTVTWNSGSLSSGVHTFPAVLQSDLYTLSSSVTVPSSTWPSETVTCNVAHPASSTKVDKKIVPRDCGCKPCICEPNEVELVFIFPPKPKDVLTITLTPKVTCVVVDISKDDPEVQFSWFVDDVEVHTAQTQPREEQFNSTFRSVSELPIMHQDWLNGKEFKCRVDSAAFPAPIYKTISKTKGRPKAPQVYTIPPPKEQMAKDKVSLTCMITDFFPEDITVEWQWNGQPAENYKNTQPIMDTDGSYFVYSKLNVQKSNWEAGNTFTCSVLHEGLHNHHTEKSLSHSPGK light: not shown
7 | 2.31 fold | 2.84 fold | 30.4 fold | 0.65 fold | MB816 (antibody, mouse IgG1, kappa, CH name; VH H237 + CH, L chain MRAL-k0; copies: 2 + 2) heavy: QVQLQESGPGLVKPSETLSLTCAVSGHSISHDHAWSWVRQPPGEGLEWIGFISYSGITNYNPSLQGRVTISRDNSKNTLYLQMNSLRAEDTAVYYCARSLARTTAMDYWGEGTLVTVSSAKTTPPSVYPLAPGSAAQTNSMVTLGCLVKGYFPEPVTVTWNSGSLSSGVHTFPAVLQSDLYTLSSSVTVPSSTWPSETVTCNVAHPASSTKVDKKIVPRDCGCKPCICEPNEVELVFIFPPKPKDVLTITLTPKVTCVVVDISKDDPEVQFSWFVDDVEVHTAQTQPREEQFNSTFRSVSELPIMHQDWLNGKEFKCRVMSDAFPAPIEKTISKTKGRPKAPQVYTIPPPKEQMAKDKVSLTCMITDFFPEDITVEWQWNGQPAENYKNTQPIMDTDGSYFVYSKLNVQKSNWEAGNTFTCSVLHEGLHNHHTEKSLSHSPGK light: not shown
8 | 1.24 fold | 1.29 fold | 16.3 fold | 0.3 fold | MB813 (antibody, mouse IgG1, kappa, CH name; VH H237 + CH, L chain MRAL-k0; copies: 2 + 2) heavy: QVQLQESGPGLVKPSETLSLTCAVSGHSISHDHAWSWVRQPPGEGLEWIGFISYSGITNYNPSLQGRVTISRDNSKNTLYLQMNSLRAEDTAVYYCARSLARTTAMDYWGEGTLVTVSSAKTTPPSVYPLAPGSAAQTNSMVTLGCLVKGYFPEPVTVTWNSGSLSSGVHTFPAVLQSDLYTLSSSVTVPSSTWPSETVTCNVAHPASSTKVDKKIVPRDCGCKPCICEPNEVELVFIFPPKPKDVLTITLTPKVTCVVVDISKDDPEVQFSWFVDDVEVHTAQTQPREEQFNSTFRSVSELPIMHQDWLNGKEFKCRVDSAAFPAFIEKTISKTKGRPKAPQVYTIPPPKEQMAKDKVSLTCMITDFFPEDITVEWQWNGQPAENYKNTQPIMDTDGSYFVYSKLNVQKSNWEAGNTFTCSVLHEGLHNHHTEKSLSHSPGK light: not shown
